Source: patent US7582290

Experiments:
[1] = target: Elongation factor 2 (EF-2), wild type, endogenous in PER.C6 and 293 cells (human) (UniProt P13639); experiment: cell-based or functional assay
[2] = target: Elongation factor 2 (EF-2) with glycine to arginine mutation at codon 705, in DPL cells (derived from PER.C6) (human) (UniProt P13639); experiment: cell-based or functional assay

## Diphtheria toxin (DT) (from UniProt P00588 33-567) (enzyme)
[1]
  cell death in the presence of DT (293 wt cells): 100 pM
  cell death in the presence of DT (PER.C6 cells): 100 pM
  cell death within 24 hrs in the presence of DT (PER.C6 and 293 cells): 10 pM
[2]
  cell growth in the presence of DT (DPLR1 cells): 100 pM
  cell survival in the presence of DT (DPLR3 cells): 10 nM
  resistance of cells to DT (DPL cells): 1 nM
